Measurements as given in paper PMC7835342.

Key:
HxlR-WT [1] = biological target: T1, HxlR-WT (Bacillus subtilis 168, UniProt P42406 1-120); assay: X-ray crystallography (2.9 A); 1 mM FA-treated protein; Cys11-CH2-Lys13 methylene bridge; 50 mM MgCl2 in crystallization; EMSA: protein preincubated +/- FA (1 mM in Methods, 0.6 mM in legends) in 20 mM HEPES pH 7.5, 300 mM NaCl, 1-2 h, 37 C; then 50 nM dsDNA in 20 mM HEPES pH 7.0
HxlR-K13A = HxlR-K13A (Bacillus subtilis 168, UniProt P42406 1-120, K13A); assay: EMSA; no FA; higher basal binding than WT; EMSA: protein preincubated +/- FA (1 mM in Methods, 0.6 mM in legends) in 20 mM HEPES pH 7.5, 300 mM NaCl, 1-2 h, 37 C; then 50 nM dsDNA in 20 mM HEPES pH 7.0
HxlR-WT [2] = biological target: T1, HxlR-WT; assay: EMSA; FA-treated (0.6 mM FA in text/legend; 1 mM in Methods); DNA binding enhanced; EMSA: protein preincubated +/- FA (1 mM in Methods, 0.6 mM in legends) in 20 mM HEPES pH 7.5, 300 mM NaCl, 1-2 h, 37 C; then 50 nM dsDNA in 20 mM HEPES pH 7.0

Binder | binding result (HxlR-WT [1]) | binding result (HxlR-K13A) | binding result (HxlR-WT [2])
20 bp palindromic crystallization DNA (dsDNA) DNA 1: CAGTATCCTCGAGGATACTG DNA 2: CAGTATCCTCGAGGATACTG | binds |  | 
BRH (hxlAB promoter EMSA probe) (dsDNA) DNA 1: CCTCACAGTATCCTCCAAGTAACTTGTTGACTTCAAAGTGCCTACTTCTC DNA 2: GAGAAGTAGGCACTTTGAAGTCAACAAGTTACTTGGAGGATACTGTGAGG |  | binds | binds
